Biological target: PDGF-AB (A-chain/B-chain heterodimer) (Homo sapiens) (UniProt P04085+P01127)
Test: filter

Chain of PDGF-AB (A-chain/B-chain heterodimer) (Homo sapiens) (P01127 82-190, chain 2 of 2, other chains not shown): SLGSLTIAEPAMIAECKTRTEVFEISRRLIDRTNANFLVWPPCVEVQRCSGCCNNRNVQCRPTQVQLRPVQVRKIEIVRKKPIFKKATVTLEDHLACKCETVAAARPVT

ATCCGCCTGATTAGCGATACTNNNNNNNNNNNNNNNNNNNNNNNNNNNNNNNNNNNNNNNNACTTGAGCAAAATCACCTGCAGGGG [starting random ssDNA pool]
binding signal (fold lower affinity than round 12 pool): 700

ATCCGCCTGATTAGCGATACTNNNNNNNNNNNNNNNNNNNNNNNNNNNNNNNNNNNNNNNNACTTGAGCAAAATCACCTGCAGGGG [round 12 affinity-enriched ssDNA pool]
Kd (after 12 rounds, apparent Kd): 0.05 nM

GGGAGACAAGAAUAACGCUCAANNNNNNNNNNNNNNNNNNNNNNNNNNNNNNNNNNNNNNNNNNNNNNNNNNUUCGACAGGAGGCUCACAACAGGC [starting random 2'-F-pyrimidine RNA pool]
Kd (2'-F all C,U, random 2'-F-pyrimidine RNA, method inferred): 35 nM
